# Experimental data taken from publication PMC6555819, “Comprehensive study of nuclear receptor DNA binding provides a revised framework for understanding receptor specificity”.
# Tests used:
# Assay in all cases: no ligand; PBM; 270 nM : 90 nM RXRa; PBS pH 7.4, 2% milk, 0.02% Triton X-100, 1 mM DTT, BSA, 0.4 mg/ml salmon testes DNA
# RARb:RXRa = RARb:RXRa (Homo sapiens, UniProt P10826;P19793 full;full); conditions: tags: His kept;His cleaved; copies: 1;1; label: surface-attached array probe
# How it was run: (§1)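 Custom Agilent 4×180K protein-binding microarrays carried double-stranded probes. Their 34-nt variable regions held direct-repeat seeds, single-nucleotide variants, half-site ablations and random human genomic background sequences. Arrays were incubated 1 h with ligand-free nuclear receptor dimers in PBS pH 7.4, 2% milk, 0.02% Triton X-100, 1 mM DTT, 0.2 mg/mL BSA and 0.4 mg/ml salmon testes DNA. Antibodies against each partner (one per run) detected binding, and scanned fluorescence was regression-normalized. Binding z-scores use random background probes as reference.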
# PPARa:RXRa = PPARa:RXRa (Homo sapiens, UniProt Q07869;P19793 full;full); conditions: tags: GST kept;His cleaved; copies: 1;1; label: surface-attached array probe
# How it was run: as §1
# RARg:RXRa = RARg:RXRa (Homo sapiens, UniProt P13631;P19793 full;full); conditions: tags: His kept;His cleaved; copies: 1;1; label: surface-attached array probe
# How it was run: as §1
# FXR:RXRa = FXR:RXRa (Homo sapiens, UniProt Q96RI1;P19793 full;full); conditions: tags: His kept;His cleaved; copies: 1;1; label: surface-attached array probe
# How it was run: as §1
# RARg:RXRa, sequence (P13631 whole entry, chain 1 of 2): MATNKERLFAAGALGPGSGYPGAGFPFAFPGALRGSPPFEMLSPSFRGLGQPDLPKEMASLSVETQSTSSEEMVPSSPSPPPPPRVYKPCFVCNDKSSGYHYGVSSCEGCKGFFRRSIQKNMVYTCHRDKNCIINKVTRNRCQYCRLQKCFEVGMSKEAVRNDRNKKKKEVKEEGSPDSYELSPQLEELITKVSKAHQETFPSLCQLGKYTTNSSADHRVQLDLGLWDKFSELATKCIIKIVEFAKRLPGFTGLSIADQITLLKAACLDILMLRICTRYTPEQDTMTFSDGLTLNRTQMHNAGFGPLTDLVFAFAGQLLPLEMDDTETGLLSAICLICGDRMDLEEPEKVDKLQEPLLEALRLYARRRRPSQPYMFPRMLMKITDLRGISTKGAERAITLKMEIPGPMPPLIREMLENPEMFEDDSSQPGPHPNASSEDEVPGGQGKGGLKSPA
# RARg:RXRa, sequence (P19793 whole entry, chain 2 of 2): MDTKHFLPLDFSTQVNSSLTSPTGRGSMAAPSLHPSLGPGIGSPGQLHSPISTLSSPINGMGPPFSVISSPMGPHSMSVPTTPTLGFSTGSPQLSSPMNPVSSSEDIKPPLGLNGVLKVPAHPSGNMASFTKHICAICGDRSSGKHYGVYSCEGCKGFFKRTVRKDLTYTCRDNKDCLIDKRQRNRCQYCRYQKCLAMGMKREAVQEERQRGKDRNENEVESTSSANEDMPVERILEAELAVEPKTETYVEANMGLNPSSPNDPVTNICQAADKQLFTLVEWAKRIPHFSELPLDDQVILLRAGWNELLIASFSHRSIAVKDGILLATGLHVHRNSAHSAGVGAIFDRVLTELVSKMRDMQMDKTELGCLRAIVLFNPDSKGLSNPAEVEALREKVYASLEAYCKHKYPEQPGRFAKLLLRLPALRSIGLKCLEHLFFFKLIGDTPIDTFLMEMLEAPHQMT
# PPARa:RXRa, sequence (Q07869 whole entry, chain 1 of 2): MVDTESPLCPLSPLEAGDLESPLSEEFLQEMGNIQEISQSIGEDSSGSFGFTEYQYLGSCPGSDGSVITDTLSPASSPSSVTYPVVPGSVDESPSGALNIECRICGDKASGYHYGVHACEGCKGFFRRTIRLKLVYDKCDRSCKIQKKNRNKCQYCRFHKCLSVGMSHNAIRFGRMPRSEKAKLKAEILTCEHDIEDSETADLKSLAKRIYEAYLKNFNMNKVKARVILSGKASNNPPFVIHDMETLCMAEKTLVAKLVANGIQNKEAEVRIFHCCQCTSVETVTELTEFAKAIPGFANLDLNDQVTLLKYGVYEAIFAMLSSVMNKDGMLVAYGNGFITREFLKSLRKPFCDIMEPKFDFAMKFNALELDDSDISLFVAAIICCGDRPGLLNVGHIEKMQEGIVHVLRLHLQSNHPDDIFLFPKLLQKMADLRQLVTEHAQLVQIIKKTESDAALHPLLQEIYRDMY
# PPARa:RXRa, sequence (P19793 whole entry, chain 2 of 2): as the sequence (P19793 whole entry, chain 2 of 2) above
# RARb:RXRa, sequence (P10826 whole entry, chain 1 of 2): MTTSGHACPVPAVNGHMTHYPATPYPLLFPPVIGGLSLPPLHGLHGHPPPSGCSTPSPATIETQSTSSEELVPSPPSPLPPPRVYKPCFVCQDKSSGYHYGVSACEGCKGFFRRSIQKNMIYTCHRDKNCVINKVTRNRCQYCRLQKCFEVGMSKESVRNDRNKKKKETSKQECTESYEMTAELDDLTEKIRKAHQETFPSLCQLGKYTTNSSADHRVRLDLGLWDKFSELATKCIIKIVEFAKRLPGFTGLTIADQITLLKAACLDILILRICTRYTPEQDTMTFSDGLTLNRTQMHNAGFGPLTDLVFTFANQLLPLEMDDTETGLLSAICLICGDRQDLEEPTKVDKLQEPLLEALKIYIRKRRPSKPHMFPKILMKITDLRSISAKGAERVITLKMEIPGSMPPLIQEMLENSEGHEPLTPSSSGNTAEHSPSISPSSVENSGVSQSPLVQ
# RARb:RXRa, sequence (P19793 whole entry, chain 2 of 2): as the sequence (P19793 whole entry, chain 2 of 2) above
# FXR:RXRa, sequence (Q96RI1 whole entry, chain 1 of 2): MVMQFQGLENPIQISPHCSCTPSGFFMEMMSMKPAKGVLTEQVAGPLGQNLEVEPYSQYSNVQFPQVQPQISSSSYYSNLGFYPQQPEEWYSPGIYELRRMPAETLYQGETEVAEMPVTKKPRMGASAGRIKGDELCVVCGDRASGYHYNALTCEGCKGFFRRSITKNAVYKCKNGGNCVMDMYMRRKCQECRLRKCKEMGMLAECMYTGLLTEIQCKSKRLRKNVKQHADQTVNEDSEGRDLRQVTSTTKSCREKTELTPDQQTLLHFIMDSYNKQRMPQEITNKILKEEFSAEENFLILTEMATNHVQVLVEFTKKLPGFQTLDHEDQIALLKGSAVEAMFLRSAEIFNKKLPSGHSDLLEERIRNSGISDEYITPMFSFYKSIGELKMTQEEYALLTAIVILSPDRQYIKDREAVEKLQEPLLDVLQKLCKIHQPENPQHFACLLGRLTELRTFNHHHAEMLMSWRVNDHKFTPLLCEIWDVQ
# FXR:RXRa, sequence (P19793 whole entry, chain 2 of 2): as the sequence (P19793 whole entry, chain 2 of 2) above
Binder,binding signal (RARb:RXRa),binding signal (PPARa:RXRa),binding signal (RARg:RXRa),binding signal (FXR:RXRa)
NRC3_random_hg19_268_o1 (dsDNA) DNA 1: GCTGTTCTTTGGCAGTCTAGAGAATCAGAAGAGCAAGCGATTGACAGCGTAGAATGAAGG DNA 2: CCTTCATTCTACGCTGTCAATCGCTTGCTCTTCTGATTCTCTAGACTGCCAAAGAACAGC,-1.08 PBM z-score against 500 random probes,–,–,–
NRC3_random_hg19_4_o1 (dsDNA) DNA 1: GCGTAGTTGTGTCCTCTCCTGTTCTCTCTTCTACTGGCGATTGACAGCGTAGAATGAAGG DNA 2: CCTTCATTCTACGCTGTCAATCGCCAGTAGAAGAGAGAACAGGAGAGGACACAACTACGC,0.3 PBM z-score against 500 random probes,–,–,–
NRC3_random_hg19_459_o1 (dsDNA) DNA 1: GCAAACACAACAGTACCTACCTTAAGCAGTTCATCAGCGATTGACAGCGTAGAATGAAGG DNA 2: CCTTCATTCTACGCTGTCAATCGCTGATGAACTGCTTAAGGTAGGTACTGTTGTGTTTGC,0.25 PBM z-score against 500 random probes,–,–,–
NRC3_random_hg19_411_o1 (dsDNA) DNA 1: GCATTGAGCAGGTGTTGATTACAAATGAGATGTTTCGCGATTGACAGCGTAGAATGAAGG DNA 2: CCTTCATTCTACGCTGTCAATCGCGAAACATCTCATTTGTAATCAACACCTGCTCAATGC,0 PBM z-score against 500 random probes,0.03 PBM z-score against 500 random probes,–,–
NRC3_wobSeed4_DR0_A20T_o1 (dsDNA) DNA 1: GCCCTACTGGGCCAAGGTCTTTGATCAGTCAAAGCAGCGATTGACAGCGTAGAATGAAGG DNA 2: CCTTCATTCTACGCTGTCAATCGCTGCTTTGACTGATCAAAGACCTTGGCCCAGTAGGGC,0.33 PBM z-score against 500 random probes,0.29 PBM z-score against 500 random probes,–,–
NRC3_random_hg19_324_o1 (dsDNA) DNA 1: GCCAGTGATGCACACCTGTAACCCTAGCACTTTGGGGCGATTGACAGCGTAGAATGAAGG DNA 2: CCTTCATTCTACGCTGTCAATCGCCCCAAAGTGCTAGGGTTACAGGTGTGCATCACTGGC,0.04 PBM z-score against 500 random probes,–,–,–
NRC3_random_hg19_72_o1 (dsDNA) DNA 1: GCTCCCAACTAGCTGGAACTACAGGCACCTGCCACCGCGATTGACAGCGTAGAATGAAGG DNA 2: CCTTCATTCTACGCTGTCAATCGCGGTGGCAGGTGCCTGTAGTTCCAGCTAGTTGGGAGC,-0.32 PBM z-score against 500 random probes,0.23 PBM z-score against 500 random probes,–,–
NRC3_random_hg19_306_o1 (dsDNA) DNA 1: GCAGAGCCCACTTCACTTCCTCAGAAACAGCCCTCCGCGATTGACAGCGTAGAATGAAGG DNA 2: CCTTCATTCTACGCTGTCAATCGCGGAGGGCTGTTTCTGAGGAAGTGAAGTGGGCTCTGC,-0.38 PBM z-score against 500 random probes,-0.34 PBM z-score against 500 random probes,–,–
NRC3_random_hg19_357_o1 (dsDNA) DNA 1: GCAACAGATTTCATTGAGGTGATCTACTTCGTTTCTGCGATTGACAGCGTAGAATGAAGG DNA 2: CCTTCATTCTACGCTGTCAATCGCAGAAACGAAGTAGATCACCTCAATGAAATCTGTTGC,-0.12 PBM z-score against 500 random probes,–,–,–
NRC3_random_hg19_482_o1 (dsDNA) DNA 1: GCCATCCTGTAAGACACTTCCTCTAAGAAATGGCTAGCGATTGACAGCGTAGAATGAAGG DNA 2: CCTTCATTCTACGCTGTCAATCGCTAGCCATTTCTTAGAGGAAGTGTCTTACAGGATGGC,-0.03 PBM z-score against 500 random probes,–,0.13 PBM z-score against 500 random probes,–
NRC3_wobSeed1_DR0_C7A_o1 (dsDNA) DNA 1: GCCAAAATAGGTCAAGGTCAAAGTCGGTTTGTGCCAGCGATTGACAGCGTAGAATGAAGG DNA 2: CCTTCATTCTACGCTGTCAATCGCTGGCACAAACCGACTTTGACCTTGACCTATTTTGGC,5.5 PBM z-score against 500 random probes,6.51 PBM z-score against 500 random probes,–,–
NRC3_random_hg19_291_o1 (dsDNA) DNA 1: GCGAGCAAAGGGACTTCTTAGATGGTGGTGGGCAAGGCGATTGACAGCGTAGAATGAAGG DNA 2: CCTTCATTCTACGCTGTCAATCGCCTTGCCCACCACCATCTAAGAAGTCCCTTTGCTCGC,-0.49 PBM z-score against 500 random probes,–,–,–
NRC3_random_hg19_202_o1 (dsDNA) DNA 1: GCTCTCTGGTACCAGTGAAGAAGACGTCCAGGTGGCGCGATTGACAGCGTAGAATGAAGG DNA 2: CCTTCATTCTACGCTGTCAATCGCGCCACCTGGACGTCTTCTTCACTGGTACCAGAGAGC,-0.14 PBM z-score against 500 random probes,–,–,–
NRC3_random_hg19_52_o1 (dsDNA) DNA 1: GCCCAGGAGCAGTGGCTCACGCCTGTAATCCCAGCAGCGATTGACAGCGTAGAATGAAGG DNA 2: CCTTCATTCTACGCTGTCAATCGCTGCTGGGATTACAGGCGTGAGCCACTGCTCCTGGGC,-0.55 PBM z-score against 500 random probes,-0.74 PBM z-score against 500 random probes,–,–
NRC3_random_hg19_434_o1 (dsDNA) DNA 1: GCCACATGAAAGCTGACAACAGAAGCACTCCAACACGCGATTGACAGCGTAGAATGAAGG DNA 2: CCTTCATTCTACGCTGTCAATCGCGTGTTGGAGTGCTTCTGTTGTCAGCTTTCATGTGGC,-0.24 PBM z-score against 500 random probes,–,–,–
NRC3_random_hg19_331_o1 (dsDNA) DNA 1: GCACAATCCCTACACTTTAGGAAGTCACAGTCTAGTGCGATTGACAGCGTAGAATGAAGG DNA 2: CCTTCATTCTACGCTGTCAATCGCACTAGACTGTGACTTCCTAAAGTGTAGGGATTGTGC,0.39 PBM z-score against 500 random probes,–,–,–
NRC3_wobSeed87_DR3_G10A_o1 (dsDNA) DNA 1: GCCGAACTAAGTCATCCAGGACAGTGAATACATTGAGCGATTGACAGCGTAGAATGAAGG DNA 2: CCTTCATTCTACGCTGTCAATCGCTCAATGTATTCACTGTCCTGGATGACTTAGTTCGGC,0.37 PBM z-score against 500 random probes,–,0.43 PBM z-score against 500 random probes,–
NRC3_wobSeed88_DR3_T12A_o1 (dsDNA) DNA 1: GCTAGCCTAGGACATGCGGGCCAGTATAGTGTCGGCGCGATTGACAGCGTAGAATGAAGG DNA 2: CCTTCATTCTACGCTGTCAATCGCGCCGACACTATACTGGCCCGCATGTCCTAGGCTAGC,-0.15 PBM z-score against 500 random probes,–,–,–
NRC3_random_hg19_141_o1 (dsDNA) DNA 1: GCATTCTACCACTTCTTGCACCTAGTGCTGCTGTTCGCGATTGACAGCGTAGAATGAAGG DNA 2: CCTTCATTCTACGCTGTCAATCGCGAACAGCAGCACTAGGTGCAAGAAGTGGTAGAATGC,0.19 PBM z-score against 500 random probes,0.17 PBM z-score against 500 random probes,–,–
NRC3_random_hg19_437_o1 (dsDNA) DNA 1: GCCGTGTTGGCAGGTGCCTGTACTCTCAGCTACTCGGCGATTGACAGCGTAGAATGAAGG DNA 2: CCTTCATTCTACGCTGTCAATCGCCGAGTAGCTGAGAGTACAGGCACCTGCCAACACGGC,-0.44 PBM z-score against 500 random probes,-0.58 PBM z-score against 500 random probes,–,–
NRC3_random_hg19_440_o1 (dsDNA) DNA 1: GCGAAGGAGTTCTTATCTGGCCAGTTCCCATCCTGTGCGATTGACAGCGTAGAATGAAGG DNA 2: CCTTCATTCTACGCTGTCAATCGCACAGGATGGGAACTGGCCAGATAAGAACTCCTTCGC,-0.36 PBM z-score against 500 random probes,-0.35 PBM z-score against 500 random probes,-0.83 PBM z-score against 500 random probes,–
NRC3_wobSeed69_DR2_G10T_o1 (dsDNA) DNA 1: GCAGTCAAATTTCACTAGGTAACGTAAGATTCAGCTGCGATTGACAGCGTAGAATGAAGG DNA 2: CCTTCATTCTACGCTGTCAATCGCAGCTGAATCTTACGTTACCTAGTGAAATTTGACTGC,0.27 PBM z-score against 500 random probes,0.35 PBM z-score against 500 random probes,–,–
NRC3_random_hg19_75_o1 (dsDNA) DNA 1: GCCTGAAACTACCTTATCTCTATTCTAGGCTTAAGCGCGATTGACAGCGTAGAATGAAGG DNA 2: CCTTCATTCTACGCTGTCAATCGCGCTTAAGCCTAGAATAGAGATAAGGTAGTTTCAGGC,0.33 PBM z-score against 500 random probes,–,–,–
NRC3_random_hg19_283_o1 (dsDNA) DNA 1: GCTAGCTTACCTGGATCCACTTGGCCACTAGATTTGGCGATTGACAGCGTAGAATGAAGG DNA 2: CCTTCATTCTACGCTGTCAATCGCCAAATCTAGTGGCCAAGTGGATCCAGGTAAGCTAGC,-0.42 PBM z-score against 500 random probes,–,–,–
NRC3_wobSeed135_DR5_G10A_o1 (dsDNA) DNA 1: GCCGAACTAAGTCATTGACAGGACAGTGAATAGTAAGCGATTGACAGCGTAGAATGAAGG DNA 2: CCTTCATTCTACGCTGTCAATCGCTTACTATTCACTGTCCTGTCAATGACTTAGTTCGGC,0.2 PBM z-score against 500 random probes,–,0.48 PBM z-score against 500 random probes,–
NRC3_wobSeed13_DR0_A15C_o1 (dsDNA) DNA 1: GCCGTCCAAGGTCACGGTCAGTGAAAGAGACTCGAAGCGATTGACAGCGTAGAATGAAGG DNA 2: CCTTCATTCTACGCTGTCAATCGCTTCGAGTCTCTTTCACTGACCGTGACCTTGGACGGC,5.97 PBM z-score against 500 random probes,–,–,8.3 PBM z-score against 500 random probes
NRC3_random_hg19_265_o1 (dsDNA) DNA 1: GCCTCCCTCCTCCCATCCTCCACTTTCCCATAGGCCGCGATTGACAGCGTAGAATGAAGG DNA 2: CCTTCATTCTACGCTGTCAATCGCGGCCTATGGGAAAGTGGAGGATGGGAGGAGGGAGGC,0.13 PBM z-score against 500 random probes,–,–,–
NRC3_random_hg19_179_o1 (dsDNA) DNA 1: GCGGGAGGTGTAAGGATCCTTGTGCACTGCTTGGGAGCGATTGACAGCGTAGAATGAAGG DNA 2: CCTTCATTCTACGCTGTCAATCGCTCCCAAGCAGTGCACAAGGATCCTTACACCTCCCGC,0.23 PBM z-score against 500 random probes,–,–,–
